Results as given in patent US20190270817A1 (Amgen, published 2019).

B1: A-1-003 (20A2.003) x IL-21 (R5A, R76E) homodimer fusion (other, not shown: a dimerising Fc or GST)
heavy: not shown
light: SYELTQPPSVSVSPGQTASITCSGDKLGDKYASWYQQKPGQSPVLVIYQDRKRPSGIPERFSGSNSGNTATLTISGTQAMDEADYYCQAFESSTEVFGGGTKLTVLGQPKAAPSVTLFPPSSEELQANKATLVCLISDFYPGAVTVAWKADSSPVKAGVETTTPSKQSNNKYAASSYLSLTPEQWKSHRSYSCQVTHEGSTVEKTVAPTECS
B2: A-1-003 (20A2.003) x IL-21 (R5E, R76A) homodimer fusion (other, not shown: a dimerising Fc or GST)
heavy: not shown
light: SYELTQPPSVSVSPGQTASITCSGDKLGDKYASWYQQKPGQSPVLVIYQDRKRPSGIPERFSGSNSGNTATLTISGTQAMDEADYYCQAFESSTEVFGGGTKLTVLGQPKAAPSVTLFPPSSEELQANKATLVCLISDFYPGAVTVAWKADSSPVKAGVETTTPSKQSNNKYAASSYLSLTPEQWKSHRSYSCQVTHEGSTVEKTVAPTECS
B3: A-1-003 (20A2.003) x IL-21 (R5Q, R76E) homodimer fusion (other, not shown: a dimerising Fc or GST)
heavy: not shown
light: SYELTQPPSVSVSPGQTASITCSGDKLGDKYASWYQQKPGQSPVLVIYQDRKRPSGIPERFSGSNSGNTATLTISGTQAMDEADYYCQAFESSTEVFGGGTKLTVLGQPKAAPSVTLFPPSSEELQANKATLVCLISDFYPGAVTVAWKADSSPVKAGVETTTPSKQSNNKYAASSYLSLTPEQWKSHRSYSCQVTHEGSTVEKTVAPTECS
B4: A-1-003 (20A2.003) x IL-21 (R9E, R76A) homodimer fusion (other, not shown: a dimerising Fc or GST)
heavy: not shown
light: SYELTQPPSVSVSPGQTASITCSGDKLGDKYASWYQQKPGQSPVLVIYQDRKRPSGIPERFSGSNSGNTATLTISGTQAMDEADYYCQAFESSTEVFGGGTKLTVLGQPKAAPSVTLFPPSSEELQANKATLVCLISDFYPGAVTVAWKADSSPVKAGVETTTPSKQSNNKYAASSYLSLTPEQWKSHRSYSCQVTHEGSTVEKTVAPTECS
B5: A-3-009 (20C1.009) x IL-21 (R5Q, R76E) homodimer fusion (other, not shown: a dimerising Fc or GST)
heavy: EVQLLESGGGLVQPGGSLRLSCAASGFTFSSYDMSWVRQAPGKGLEWVSLISGGGSQTYYAESVKGRFTISRDNSKNTLYLQMNSLRAEDTAVYFCASPSGHYFYAMDVWGQGTTVTVSSQGQDQHMIRMRQLIDIVDQLKNYVNDLVPEFLPAPEDVETNCEWSAFSCFQKAQLKSANTGNNERIINVSIKKLKEKPPSTNAGRRQKHRLTCPSCDSYEKKPPKEFLERFKSLLQKMIHQHLSSRTHGSEDS
light: DIQMTQSPSSVSASVGDRVTITCRASQGISNWLAWYQQKPGKAPKLLIFAASSLQSGVPSRFSGSGSGTDFTLTISSLQPEDFATYYCQQAESFPHTFGGGTKVEIKRTVAAPSVFIFPPSDEQLKSGTASVVCLLNNFYPREAKVQWKVDNALQSGNSQESVTEQDSKDSTYSLSSTLTLSKADYEKHKVYACEVTHQGLSSPVTKSFNRGEC
B6: A-3-009 (20C1.009) x IL-21 (R5E, R76A) homodimer fusion (other, not shown: a dimerising Fc or GST)
heavy: EVQLLESGGGLVQPGGSLRLSCAASGFTFSSYDMSWVRQAPGKGLEWVSLISGGGSQTYYAESVKGRFTISRDNSKNTLYLQMNSLRAEDTAVYFCASPSGHYFYAMDVWGQGTTVTVSSQGQDEHMIRMRQLIDIVDQLKNYVNDLVPEFLPAPEDVETNCEWSAFSCFQKAQLKSANTGNNERIINVSIKKLKAKPPSTNAGRRQKHRLTCPSCDSYEKKPPKEFLERFKSLLQKMIHQHLSSRTHGSEDS
light: DIQMTQSPSSVSASVGDRVTITCRASQGISNWLAWYQQKPGKAPKLLIFAASSLQSGVPSRFSGSGSGTDFTLTISSLQPEDFATYYCQQAESFPHTFGGGTKVEIKRTVAAPSVFIFPPSDEQLKSGTASVVCLLNNFYPREAKVQWKVDNALQSGNSQESVTEQDSKDSTYSLSSTLTLSKADYEKHKVYACEVTHQGLSSPVTKSFNRGEC
B7: A-3-009 (20C1.009) x IL-21 (R9E, R76A) homodimer fusion (other, not shown: a dimerising Fc or GST)
heavy: EVQLLESGGGLVQPGGSLRLSCAASGFTFSSYDMSWVRQAPGKGLEWVSLISGGGSQTYYAESVKGRFTISRDNSKNTLYLQMNSLRAEDTAVYFCASPSGHYFYAMDVWGQGTTVTVSSQGQDRHMIEMRQLIDIVDQLKNYVNDLVPEFLPAPEDVETNCEWSAFSCFQKAQLKSANTGNNERIINVSIKKLKAKPPSTNAGRRQKHRLTCPSCDSYEKKPPKEFLERFKSLLQKMIHQHLSSRTHGSEDS
light: DIQMTQSPSSVSASVGDRVTITCRASQGISNWLAWYQQKPGKAPKLLIFAASSLQSGVPSRFSGSGSGTDFTLTISSLQPEDFATYYCQQAESFPHTFGGGTKVEIKRTVAAPSVFIFPPSDEQLKSGTASVVCLLNNFYPREAKVQWKVDNALQSGNSQESVTEQDSKDSTYSLSSTLTLSKADYEKHKVYACEVTHQGLSSPVTKSFNRGEC
B8: A-4-006 (20C1.006) x IL-21 (R5A, R76E) homodimer fusion (other, not shown: a dimerising Fc or GST)
heavy: EVQLLESGGGLVQPGGSLRLSCAASGFTFSSYDMSWVRQAPGKGLEWVSLISGGGSNTYYAESVKGRFTISRDNSKNTLYLQMNSLRAEDTAVYFCASPSGHYFYAMDVWGQGTTVTVSSQGQDAHMIRMRQLIDIVDQLKNYVNDLVPEFLPAPEDVETNCEWSAFSCFQKAQLKSANTGNNERIINVSIKKLKEKPPSTNAGRRQKHRLTCPSCDSYEKKPPKEFLERFKSLLQKMIHQHLSSRTHGSEDS
light: DIQMTQSPSSVSASVGDRVTITCRASQGISNWLAWYQQKPGKAPKLLIFAASSLQSGVPSRFSGSGSGTDFTLTISSLQPEDFATYYCQQAESFPHTFGGGTKVEIKRTVAAPSVFIFPPSDEQLKSGTASVVCLLNNFYPREAKVQWKVDNALQSGNSQESVTEQDSKDSTYSLSSTLTLSKADYEKHKVYACEVTHQGLSSPVTKSFNRGEC
B9: A-2-006 (22D4.006) x IL-21 (R5A, R76E) homodimer fusion (other, not shown: a dimerising Fc or GST)
heavy: EVQLVESGGSVVRPGGSLRLSCAASGFTVDDYSMSWVRQVPGKGLEWVSGINWNGGRTRYADAVKGRFTISRDSAKNSLYLQMNSLRAEDTALYYCAREFNNFESNWFDPWGQGTLVTVSSQGQDAHMIRMRQLIDIVDQLKNYVNDLVPEFLPAPEDVETNCEWSAFSCFQKAQLKSANTGNNERIINVSIKKLKEKPPSTNAGRRQKHRLTCPSCDSYEKKPPKEFLERFKSLLQKMIHQHLSSRTHGSEDS
light: SYELTQPPSVSVSPGQTARITCSGDALPKKYAYWYQQKPGQAPVLVISEDAKRPSGIPERFSGSSSGTMATLTISGAQVEDEADYYCYSTDASGNHRVFGGGTKLTVLGQPKAAPSVTLFPPSSEELQANKATLVCLISDFYPGAVTVAWKADSSPVKAGVETTTPSKQSNNKYAASSYLSLTPEQWKSHRSYSCQVTHEGSTVEKTVAPTECS
B10: A-2-006 (22D4.006) x IL-21 (R5E, R76A) homodimer fusion (other, not shown: a dimerising Fc or GST)
heavy: EVQLVESGGSVVRPGGSLRLSCAASGFTVDDYSMSWVRQVPGKGLEWVSGINWNGGRTRYADAVKGRFTISRDSAKNSLYLQMNSLRAEDTALYYCAREFNNFESNWFDPWGQGTLVTVSSQGQDEHMIRMRQLIDIVDQLKNYVNDLVPEFLPAPEDVETNCEWSAFSCFQKAQLKSANTGNNERIINVSIKKLKAKPPSTNAGRRQKHRLTCPSCDSYEKKPPKEFLERFKSLLQKMIHQHLSSRTHGSEDS
light: SYELTQPPSVSVSPGQTARITCSGDALPKKYAYWYQQKPGQAPVLVISEDAKRPSGIPERFSGSSSGTMATLTISGAQVEDEADYYCYSTDASGNHRVFGGGTKLTVLGQPKAAPSVTLFPPSSEELQANKATLVCLISDFYPGAVTVAWKADSSPVKAGVETTTPSKQSNNKYAASSYLSLTPEQWKSHRSYSCQVTHEGSTVEKTVAPTECS
B11: A-2-006 (22D4.006) x IL-21 (R5Q, R76E) homodimer fusion (other, not shown: a dimerising Fc or GST)
heavy: EVQLVESGGSVVRPGGSLRLSCAASGFTVDDYSMSWVRQVPGKGLEWVSGINWNGGRTRYADAVKGRFTISRDSAKNSLYLQMNSLRAEDTALYYCAREFNNFESNWFDPWGQGTLVTVSSQGQDQHMIRMRQLIDIVDQLKNYVNDLVPEFLPAPEDVETNCEWSAFSCFQKAQLKSANTGNNERIINVSIKKLKEKPPSTNAGRRQKHRLTCPSCDSYEKKPPKEFLERFKSLLQKMIHQHLSSRTHGSEDS
light: SYELTQPPSVSVSPGQTARITCSGDALPKKYAYWYQQKPGQAPVLVISEDAKRPSGIPERFSGSSSGTMATLTISGAQVEDEADYYCYSTDASGNHRVFGGGTKLTVLGQPKAAPSVTLFPPSSEELQANKATLVCLISDFYPGAVTVAWKADSSPVKAGVETTTPSKQSNNKYAASSYLSLTPEQWKSHRSYSCQVTHEGSTVEKTVAPTECS
B12: A-2-006 (22D4.006) x IL-21 (R9E, R76A) homodimer fusion (other, not shown: a dimerising Fc or GST)
heavy: EVQLVESGGSVVRPGGSLRLSCAASGFTVDDYSMSWVRQVPGKGLEWVSGINWNGGRTRYADAVKGRFTISRDSAKNSLYLQMNSLRAEDTALYYCAREFNNFESNWFDPWGQGTLVTVSSQGQDRHMIEMRQLIDIVDQLKNYVNDLVPEFLPAPEDVETNCEWSAFSCFQKAQLKSANTGNNERIINVSIKKLKAKPPSTNAGRRQKHRLTCPSCDSYEKKPPKEFLERFKSLLQKMIHQHLSSRTHGSEDS
light: SYELTQPPSVSVSPGQTARITCSGDALPKKYAYWYQQKPGQAPVLVISEDAKRPSGIPERFSGSSSGTMATLTISGAQVEDEADYYCYSTDASGNHRVFGGGTKLTVLGQPKAAPSVTLFPPSSEELQANKATLVCLISDFYPGAVTVAWKADSSPVKAGVETTTPSKQSNNKYAASSYLSLTPEQWKSHRSYSCQVTHEGSTVEKTVAPTECS

The binders below were run against T1, cynomolgus monkey IL-21R, recombinant soluble (FLAG-His or Fc, not stated which) (cynomolgus monkey, UniProt G7Q0S8 41-253) (assay: ForteBio Octet).
T1 construct: also called IL-21R Cy

Kd, > 300 nM:
B1, B2, B3, B4, B5, B6, B7, B8, B9, B10, B11, B12
